Experimental data: patent US20250026797A1 (GOVERNMENT OF THE UNITED STATES OF AMERICA AS REPRESENTED …, published 2025)
*: point of attachment. Biotin = O=C1N[C@H]2[C@H](CS[C@H]2CCCCC(=O)*)N1

T1: wild-type human GID4 fragment (residues 116-300), purified with N-terminal His-tag (human, UniProt Q8IVV7 116-300)
T1 construct: Expressed in E. coli BL21(DE3), nickel-column purified; also called wild-type GID4; native GID4; not shown: N-terminal six-histidine tag and TEV protease recognition site from the pET21(+) construct
T1 sequence: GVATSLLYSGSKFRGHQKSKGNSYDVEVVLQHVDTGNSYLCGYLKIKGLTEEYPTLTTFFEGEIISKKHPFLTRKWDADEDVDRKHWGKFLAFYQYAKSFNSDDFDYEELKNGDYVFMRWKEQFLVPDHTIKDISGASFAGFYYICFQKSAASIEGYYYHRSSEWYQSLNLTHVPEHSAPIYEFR

B1: NH2-PGLVKSK(biotin)-COOH peptide (peptide)
peptide: H-PGLVKSK(Biotin)-OH
SMILES: CC(C)C[C@H](NC(=O)CNC(=O)[C@@H]1CCCN1)C(=O)N[C@H](C(=O)N[C@@H](CCCCN)C(=O)N[C@@H](CO)C(=O)N[C@@H](CCCCNC(=O)CCCC[C@@H]1SC[C@@H]2NC(=O)N[C@@H]21)C(=O)O)C(C)C
notes: Immobilised on streptavidin biosensors in BLI; in solution in the yeast display sorts; also called Nt-Pro peptide; target peptide

Legend:
[1] = biological target: T1, wild-type human GID4 fragment (residues …); test: BLI, biotinylated peptide on streptavidin biosensor, 10 µmol/L protein
Method: High-throughput kinetic measurements were taken using Octet Red96e system with Octet Streptavidin (SA) Biosensors in 96-well format. The highest concentration of protein was prepared by mixing 25% of the total volume with 0.4% BSA in dialysis buffer (1×PBS) and completing subsequent dilutions with 0.1% BSA in dialysis buffer. The SA biosensors were hydrated for 10 min in the dialysis buffer with 0.1% BSA then loaded with NH₂-XXXVKSK(biotin)-COOH (where X are residues specified in the experiment and figures) by moving the sensors into wells with 10 μmol/L of the biotinylated peptide and incubating for 2 min. Unbound peptide was removed by incubating in the dialysis buffer with 0.1% BSA for 2 min in the next wells. The association of GID4 wild-type and variants were then measured by incubating the biosensors in wells with the proteins for 10 min and then dissociation measured by moving the sensors into new wells with dialysis buffer with 0.1% BSA for another 10 min. All wells contained 200 μL of specified solution. The measurements were analyzed with instrument software Data Analysis HT (Version 12).
The association and dissociation of the GID4 wild-type and the six variants to the PGLVKSK(biotin) peptide were evaluated using BLI. BLI is an optical technique that can measure interaction between protein in solution ad peptide immobilized on the biosensor tip. […] The S283F variant has an apparent faster dissociation rate compared to the other singe mutation variants. The apparent faster dissociation rate due to S283F mutation is also present in A252V-S283F mutant, when compared to the A252V-S253T mutant. […] The increase in the BLI response and shift in dissociation rate can be beneficial as an Nt-Pro recognizing protein; differences in off-rate can be used as method to distinguish different Nt-amino acids.

[2] = biological target: B1; test: yeast-surface display, FACS with biotinylated peptide and streptavidin-R-phycoerythrin
Method: After expression, aliquots of cells were pelleted at 3000 RPM for 3 min and suspended to 1 mL for sort samples and 100 μL for control samples such that OD₆₀₀=1 in 0.1% BSA in 1× phosphate-buffered saline (PBS, 137 mmol/L NaCl, 2.7 mmol/L KCl, 10 mmol/L sodium phosphate dibasic, 1.8 mmol/L potassium phosphate monobasic, pH 7.4). The samples were prepared with or without 10 μmol/L of NH₂-PGLVKSK(biotin)-COOH peptide, which has biotin attached to the C-terminal lysine residue. Cells were incubated, while rotating with mixing for 90 min at room temperature. Cells were then pelleted at 3600 RPM for 3 min at 4° C. and suspended in 1 mL of 0.1% BSA in PBS with 10 μg/mL of α-c-Myc (9E1) antibody conjugated to Alexa Fluor® 647 and 25 μg/mL of streptavidin conjugated to R-phycoerythrin (FIG. 1c). For control samples, no or single fluorescent probe was included in 100 μL total volume. After incubation in the dark for 40 min on ice, the cells were washed with 0.1% BSA in PBS and kept on ice until running on cell sorter.
Cells were sorted by fluorescence-activated cell sorting (FACS) on Sony SH800 cell sorter with 100 μm chip. Control samples were used to set up compensation and gate for single cells that show binding to both fluorescent probes (Q2 in FIG. 1d). A total of 70345 cells were sorted into two 5 mL FACS tubes with 1 mL of SD-CAA in each and then combined in 14 mL Falcon cell culture tube for growth with additional 2 mL of SD-CAA media and 10 μg/mL of Carb. After ˜36 hrs of growth at 30° C. and 300 RPM, cells were subcultured to expression media and the selecting and sorting repeated, with modification of using 1 μmol/L of the peptide and collecting 10000 cells from gated areas. A third round of expression, selection, and sorting was done using 0.5 μmol/L of the biotinylated peptide. In each round of cell sorting and amplification, ˜10⁷ cells were pelleted and frozen for plasmid extraction.

binding result [1]	binding result [2]	Binder
binds		B1
	binds	yeast-surface displayed GID4 A252V variant (residues 116-300, HA-tag, (GGGGS)x3 linker, c-Myc-tag) (designed binder, also called A252V (Sort 3ii); not shown: yeast-surface display fusion partner encoded by the pCTCON2 plasmid) YPYDVPDYAGGGGSGGGGSGGGGSGVATSLLYSGSKFRGHQKSKGNSYDVEVVLQHVDTGNSYLCGYLKIKGLTEEYPTLTTFFEGEIISKKHPFLTRKWDADEDVDRKHWGKFLAFYQYAKSFNSDDFDYEELKNGDYVFMRWKEQFLVPDHTIKDISGVSFAGFYYICFQKSAASIEGYYYHRSSEWYQSLNLTHVPEHSAPIYEFREQKLISEEDL
	binds	yeast-surface displayed GID4 S253T variant (residues 116-300, HA-tag, (GGGGS)x3 linker, c-Myc-tag) (designed binder, also called S253T (Sort 3i); not shown: yeast-surface display fusion partner encoded by the pCTCON2 plasmid) YPYDVPDYAGGGGSGGGGSGGGGSGVATSLLYSGSKFRGHQKSKGNSYDVEVVLQHVDTGNSYLCGYLKIKGLTEEYPTLTTFFEGEIISKKHPFLTRKWDADEDVDRKHWGKFLAFYQYAKSFNSDDFDYEELKNGDYVFMRWKEQFLVPDHTIKDISGATFAGFYYICFQKSAASIEGYYYHRSSEWYQSLNLTHVPEHSAPIYEFREQKLISEEDL
	binds	yeast-surface displayed GID4 S283F variant (residues 116-300, HA-tag, (GGGGS)x3 linker, c-Myc-tag) (designed binder, also called S283F (Sort 3i); not shown: yeast-surface display fusion partner encoded by the pCTCON2 plasmid) YPYDVPDYAGGGGSGGGGSGGGGSGVATSLLYSGSKFRGHQKSKGNSYDVEVVLQHVDTGNSYLCGYLKIKGLTEEYPTLTTFFEGEIISKKHPFLTRKWDADEDVDRKHWGKFLAFYQYAKSFNSDDFDYEELKNGDYVFMRWKEQFLVPDHTIKDISGASFAGFYYICFQKSAASIEGYYYHRSSEWYQFLNLTHVPEHSAPIYEFREQKLISEEDL
